The values that follow come from US20250270295A1.

What is called IC50 is the concentration that gives 50% inhibition.

This assay concerns the target soluble gp34 wild type ectodomain, V5-His tagged (sgp34wt-V5-His) (HCMV strain AD169). The assay is described as follows: blocking of sgp34wt binding to immobilized human IgG, ELISA. On the technique in general: ELISA stands for enzyme-linked immunosorbent assay.

In turn, mouse IgG1 isotype antibody had an IC50 of 9.69 µg/mL.
